From patent US20230331835A1 (published 2023)
Values belong to the binder of their own block, whether it stands above or below them.

Tests used:
[1] = biological target: BMECs; assay: cell binding, apparent equilibrium affinity; apparent Kd; 95% CI 29-47
[2] = biological target: BMECs; assay: cell binding, apparent equilibrium affinity; apparent Kd; 95% CI 19-36
[3] = biological target: BMECs; assay: cell binding, apparent equilibrium affinity; apparent Kd; 95% CI 30-74
[4] = biological target: BMECs; assay: cell binding, apparent equilibrium affinity; apparent Kd; 95% CI 128-179
[5] = biological target: BMECs; assay: cell binding, apparent equilibrium affinity; apparent Kd; 95% CI 27-60

B1: 26 (Fc fusion)
chain: QVELVESGGGLVQPGGSLRLSCAASGFTFSTYWMNWVRQAPGKGLEWVAIINQDGTAEYYVDSVEGRFTISRDNAKNSLYLQMTSLRVEDTAVYYCATPTGDSDYWGQGTLVTVSSGGGGSGGGGSGGGGSSELTQDPAVSVALGQTVRITCQGDSLRSYYATWYQQKPGQAPVAVIYGQNNRPSGIPDRFSGSNSGNTASLTITAALAEDEADYYCHSRDSSGNHVLFGGGTKLTVLG
Kd [1]: 38 nM

B4: 46.1 (Fc fusion)
chain: QVQLQESGGGLAQPGGSLRLSCAASGFTFSGYWMHWVRQAPGKGLVWVSRIKGDGTDIEYADSVKGRFTISRDNAKNTLYLQMNSLRAEDTAVYYCARDLRQTHWFDSWGQGTLVTVSSGGGGSGGGGSGGGGSQSALTQDPAVSVALGQTVRITCQGDSLRSYYASWYQQKPGQAPVLVMYGENSRPSGIPDRFSGSNSGNTASLIITGAQAEDEADYYCSSRDTSGNHVLFGGGTKLTVLG
Kd [4]: 153 nM

B5: 9 (Fc fusion)
chain: QVQLVESGGGVTQPGLSLRLSCAASGFTFSSYAMSWVRQAPGKGLEWVSAISGSGGSTYYADSVKGRFTISRDNSKNTLYLQMNSLRAEDTAVYYCARGWKYFDYWGQGTLVTVSSSGGGSGGGGSGGGGSETTLTQSPSTLSASIGDRVAITCRASEGIYHWLAWYQQKPGKAPKLLIYKASSLASGAPSRFSGSGSGTDFTLTISSLQPDDFATYYCQQYHTISRTFGPGTKVEIKR
Kd [5]: 44 nM

Results, then the binder that gave them:

Kd [2]: 28 nM
B2: 17 (Fc fusion)
chain: QVQLLQSAGALVQPGGSLRLSCAASGFTFSSSTMHWVRQAPGKGLEWVAVVSYDGNTQYYADSVKGRFTISRDNSKNTLSLQMNNLRAEDTAVYYCAGLWGSLLGYFQHWGQGTLVTVSSGGGGSGGGGSGGGGSDIQMTQSPSFLSASVGDRVTITCRASQGVNNYLAWYQQKPGKAPKLLIYAASTLQSGVPSSFSGSGSGTEFTLTISSLQPEDFATYFCQQAHSFPPTFGGGTKLEIKR

Kd [3]: 52 nM
B3: 3 (Fc fusion)
chain: QVQLQESGGGVVQPGRSLRLSCAASGFTFSSYAMHWVRQAPGKGLEWVAVISYDGSNKYYADSVKGRFTISRDNSKNTLYLQMNSLRAEDTAVYYCARDSKGQSVRNRFDPWGQGTLVTVSSGGGGSGGGGSGGGGSSELTQDPAVSVALGQTVRITCQGDNLRSYYASWYQQRPGQAPILVLYANTHRPSSIPDRFSGSSSGNTASLTITGAQAEDEADYYCNSRDSSGNLVVFGGGTKLTVLG
